Source: IntAct's records for PubMed 10659709

B1: Regulatory protein NPR1 (Arabidopsis thaliana (Mouse-ear cress)), P93002 (parent)
chain: MDTTIDGFADSYEISSTSFVATDNTDSSIVYLAAEQVLTGPDVSALQLLSNSFESVFDSPDDFYSDAKLVLSDGREVSFHRCVLSARSSFFKSALAAAKKEKDSNNTAAVKLELKEIAKDYEVGFDSVVTVLAYVYSSRVRPPPKGVSECADENCCHVACRPAVDFMLEVLYLAFIFKIPELITLYQRHLLDVVDKVVIEDTLVILKLANICGKACMKLLDRCKEIIVKSNVDMVSLEKSLPEELVKEIIDRRKELGLEVPKVKKHVSNVHKALDSDDIELVKLLLKEDHTNLDDACALHFAVAYCNVKTATDLLKLDLADVNHRNPRGYTVLHVAAMRKEPQLILSLLEKGASASEATLEGRTALMIAKQATMAVECNNIPEQCKHSLKGRLCVEILEQEDKREQIPRDVPPSFAVAADELKMTLLDLENRVALAQRLFPTEAQAAMEIAEMKGTCEFIVTSLEPDRLTGTKRTSPGVKIAPFRILEEHQSRLKALSKTVELGKRFFPRCSAVLDQIMNCEDLTQLACGEDDTAEKRLQKKQRYMEIQETLKKAFSEDNLELGNSSLTDSTSSTSKSTGGKRSNRKLSHRRR
partner: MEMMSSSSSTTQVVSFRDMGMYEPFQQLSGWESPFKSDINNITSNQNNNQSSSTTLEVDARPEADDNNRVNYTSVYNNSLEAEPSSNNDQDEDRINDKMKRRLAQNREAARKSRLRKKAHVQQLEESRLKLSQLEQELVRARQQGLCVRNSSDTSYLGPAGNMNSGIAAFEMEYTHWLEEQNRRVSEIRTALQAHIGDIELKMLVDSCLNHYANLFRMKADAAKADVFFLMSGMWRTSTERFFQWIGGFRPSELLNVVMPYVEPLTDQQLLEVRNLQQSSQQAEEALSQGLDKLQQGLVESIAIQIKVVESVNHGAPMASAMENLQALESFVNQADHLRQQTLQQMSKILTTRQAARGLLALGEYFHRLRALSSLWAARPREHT
B2: Regulatory protein NPR1 (Arabidopsis thaliana (Mouse-ear cress)), P93002 (parent)
chain: B1 chain
partner: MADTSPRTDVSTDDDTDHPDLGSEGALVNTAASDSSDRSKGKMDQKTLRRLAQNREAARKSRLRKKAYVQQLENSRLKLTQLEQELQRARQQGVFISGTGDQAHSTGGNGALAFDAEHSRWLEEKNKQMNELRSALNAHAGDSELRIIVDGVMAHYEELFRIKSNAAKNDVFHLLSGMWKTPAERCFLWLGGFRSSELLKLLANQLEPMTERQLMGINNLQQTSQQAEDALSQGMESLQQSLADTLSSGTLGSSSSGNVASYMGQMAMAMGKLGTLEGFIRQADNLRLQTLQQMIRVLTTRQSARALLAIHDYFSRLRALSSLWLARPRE

Variants of: B1
Settings: with tga3_arath TGA3, Q39234
For C150Y, the “effect of a mutation on the interaction” value was “decreasing interaction strength”.
With H300Y the “effect of a mutation on the interaction” value was “decreasing interaction strength”.
For H334Y, the “effect of a mutation on the interaction” value was “decreasing interaction strength”.
For P342S, the “effect of a mutation on the interaction” value was “decreasing interaction strength”.

Variants of: B2
Settings: with tga2_arath TGA2, P43273
For H334Y, the “effect of a mutation on the interaction” value was “disrupting interaction”.
In the case of P342S, the “effect of a mutation on the interaction” value is reported as “disrupting interaction”.
In the case of C150Y, the “effect of a mutation on the interaction” value is reported as “disrupting interaction”.
H300Y was tested, and the “effect of a mutation on the interaction” value was “disrupting interaction”.
